Residue numbers refer to the chain shown, from its start. Each block holds one binder with its values, some of them ahead of it.
Legend:
[1] = biological target: T1, full length cyno PD-L1 on cells (cyno, UniProt G7PSE7 19-290); assay: FACS CHO-K1-cPD-L1, 11.11 nM mAb
T1 construct: also called CHO-K1-cPD-L1
Protocol: (§1) Other CHO-K1 were stably transfected with a pIRES plasmid containing the nucleic acid sequence encoding full length cyno PD-L1 to generate CHO-K1 cells stably expressing cyno PD-L1 (herein referred to as CHO-K1-cPD-L1 cells). […] The culture media was aspirated, and the cells were washed twice with HBSS (Hanks Balanced Salt Solution, Invitrogen). The cells were treated with enzyme-free cell dissociation solution (Versene solution, Invitrogen) and collected. The cells were then washed twice with HBSS, cell counts were determined, and cells were resuspended with HBSS at 2×10⁶ cells/mL. Goat serum was added to the cell suspension to a final concentration of 1%, and the cells were blocked for 30 minutes on ice and then washed twice with HBSS. The cells were collected after centrifugation and resuspended in FACS buffer (HBSS+1% BSA, v/v) at 2×10⁶ cells/mL. 100 μL of the cell suspension were then added to each well of 96-well plate. 100 μL of purified anti-PD-L1 antibodies from Example 2 were added to each well of the 96-well plate and incubated for 2 hours on ice. […] The samples were washed three times with FACS buffer, and 100 μL fixation buffer (4% paraformaldehyde v/v) were added to each well and incubated for 10 minutes. The cells were then washed twice with FACS buffer and resuspended in 100 μL FACS buffer. The mean fluorescence intensity (MFI) was determined using FACS Calibur (BD), and the results are shown in FIGS. 7-8 and in Tables 10-11.

[2] = biological target: T1, full length cyno PD-L1 on cells; assay: FACS CHO-K1-cPD-L1, 0.14 nM mAb
Protocol: as §1

[3] = biological target: T2, cyno PD-L1^ECD-hFc protein (cyno, UniProt G7PSE7 19-239); assay: ELISA, 1.111 nM mAb
T2 construct: also called Cyno Monkey PD-L1^ECD-hFc
T2 sequence (G7PSE7 entry or part of it limits assumed): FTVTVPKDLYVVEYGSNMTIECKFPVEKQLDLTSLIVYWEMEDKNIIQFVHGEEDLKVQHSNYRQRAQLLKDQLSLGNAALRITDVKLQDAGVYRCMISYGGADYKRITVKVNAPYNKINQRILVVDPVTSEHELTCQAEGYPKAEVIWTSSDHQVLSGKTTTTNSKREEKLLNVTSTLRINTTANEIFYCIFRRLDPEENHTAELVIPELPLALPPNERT
Protocol: (§2) 100 μL of the diluted recombinant proteins were added to each well of 96-well plate. The plates were sealed with plastic film and incubated at 4° C. overnight. The plates were washed twice with wash buffer (PBS+0.01% (v/v) Tween20), and incubated with blocking buffer (PBS+0.01% (v/v) Tween20+1% (w/w) BSA) at room temperature for 2 hours. The blocking buffer was aspirated away, and 100 μL of purified anti-PD-L1 antibodies were added to each well and incubated for 2 hours at 37° C. The plates were washed three times with wash buffer (PBS+0.01% (v/v) Tween20). HRP-conjugated secondary antibody (Sigma) was added to each well and incubated for 2 hours at 37° C. After the plates were washed three times with wash buffer, 100 μL TMB substrate were added to each well, and the plates were incubated for 30 minutes at room temperature. 100 μL stop solution (0.1N HCl) was added to each well to stop the reaction.

[4] = biological target: T1, full length cyno PD-L1 on cells; assay: FACS CHO-K1-cPD-L1, 0.41 nM mAb
Protocol: as §1

[5] = biological target: T2, cyno PD-L1^ECD-hFc protein; assay: ELISA, 0.041 nM mAb
Protocol: as §2

[6] = biological target: T3, human PD-L1^ECD-hFc protein (human, UniProt Q9NZQ7 19-239, biotinylated in the PD-1 binding ELISA (Table 3) and in the Octet assay (Table 12)); assay: ELISA, 0.041 nM mAb
T3 construct: The plain and the biotinylated protein are kept as one molecule; also called PD-L1-hFc; Immunogen A; not shown: human IgG Fc fragment (hFc)
T3 sequence (Q9NZQ7 19-239): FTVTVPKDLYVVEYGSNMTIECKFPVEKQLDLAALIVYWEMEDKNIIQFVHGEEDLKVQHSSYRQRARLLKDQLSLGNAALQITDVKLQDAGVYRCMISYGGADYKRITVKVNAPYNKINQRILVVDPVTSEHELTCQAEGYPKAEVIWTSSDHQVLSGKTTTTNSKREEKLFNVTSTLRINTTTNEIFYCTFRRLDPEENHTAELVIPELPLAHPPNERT
Protocol: as §2

[7] = biological target: T4, full length human PD-L1 on cells (human, UniProt Q9NZQ7 19-290); assay: FACS CHO-K1-hPD-L1, 0.41 nM mAb
T4 construct: Also used as the target of the cell-based functional assays (transfected stimulator cells; PD-L1 of the cells in the mixed lymphocyte reaction); also called CHO-K1-hPD-L1; CHOK1-hPD-L1
T4 sequence (Q9NZQ7 19-290 limits assumed): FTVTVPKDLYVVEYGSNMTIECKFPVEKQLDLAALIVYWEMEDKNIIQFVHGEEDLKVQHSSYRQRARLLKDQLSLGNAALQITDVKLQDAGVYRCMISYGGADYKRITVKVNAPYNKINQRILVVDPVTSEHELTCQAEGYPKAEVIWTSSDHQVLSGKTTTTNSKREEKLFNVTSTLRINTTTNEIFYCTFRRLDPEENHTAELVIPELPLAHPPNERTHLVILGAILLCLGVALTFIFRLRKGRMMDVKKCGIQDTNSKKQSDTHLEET
Protocol: as §1

[8] = biological target: T4, full length human PD-L1 on cells; assay: FACS CHO-K1-hPD-L1, 0.0001 nM mAb
Protocol: as §1

[9] = biological target: T1, full length cyno PD-L1 on cells; assay: FACS CHO-K1-cPD-L1, 10 nM mAb
Protocol: as §1

[10] = biological target: T4, full length human PD-L1 on cells; assay: FACS CHO-K1-hPD-L1, 0.1 nM mAb
[11] = biological target: T4, full length human PD-L1 on cells; assay: cell-based or functional assay
[12] = biological target: T1, full length cyno PD-L1 on cells; assay: FACS CHO-K1-cPD-L1, 0.1 nM mAb
Protocol: as §1

[13] = biological target: T1, full length cyno PD-L1 on cells; assay: FACS CHO-K1-cPD-L1, 0.001 nM mAb
Protocol: as §1

[14] = biological target: T4, full length human PD-L1 on cells; assay: FACS CHO-K1-hPD-L1, 0.001 nM mAb
Protocol: as §1

[15] = biological target: T3, human PD-L1^ECD-hFc protein; assay: ELISA, 100 nM mAb
Protocol: as §2

[16] = biological target: T4, full length human PD-L1 on cells; assay: cell-based or functional assay; remark: listed apart in the source
[17] = biological target: T1, full length cyno PD-L1 on cells; assay: FACS CHO-K1-cPD-L1, 0.01 nM mAb
Protocol: as §1

[18] = biological target: T4, full length human PD-L1 on cells; assay: FACS CHO-K1-hPD-L1, 0.01 nM mAb

T1 sequence (G7PSE7 entry or part of it limits assumed): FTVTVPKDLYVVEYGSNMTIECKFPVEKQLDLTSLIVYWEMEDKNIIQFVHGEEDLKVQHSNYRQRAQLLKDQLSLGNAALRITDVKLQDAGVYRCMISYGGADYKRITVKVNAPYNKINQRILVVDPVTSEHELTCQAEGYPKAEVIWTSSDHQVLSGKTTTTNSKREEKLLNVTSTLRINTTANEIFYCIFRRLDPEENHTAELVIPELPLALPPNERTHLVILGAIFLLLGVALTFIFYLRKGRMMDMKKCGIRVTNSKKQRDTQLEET

Mean fluorescence intensity [1]: 136 | Mean fluorescence intensity [2]: 44.3 | OD450 nm [3]: 1.81 | Mean fluorescence intensity [4]: 83.2 | OD450 nm [5]: 0.36 | OD450 nm [6]: 0.36 | Mean fluorescence intensity [7]: 87
B1: chimeric anti-PD-L1 antibody 73D3G2 (antibody, V domains shown)
VH: EVQLVESGGGLVQPGGSLRLSCAASGFTFNTYWMNWVRQAPGRGLEWVANIKQDGGEKYYVDSVKGRFTISRDNAKNSLYLQMNSLRAEDTAMYYCARDGRSWYPDAFDIWGQGTVVTVSS
VL: DIQMTQSPSTLSASVGDRVTITCRASQSISTWLAWYQQKLGKAPKLLIYEVSILESGVPSRFSGSGSGTEFTLTISSLQPDDFATYYCQQYHSFSSFGGGTRVEIK
notes: Purified from hybridoma of Harbour H2L2 mice: human variable regions, rat constant regions

Mean fluorescence intensity [8]: 3.58 | Mean fluorescence intensity [9]: 82.3 | Mean fluorescence intensity [10]: 23.5 | IL-2 (pg/mL), MLR donor1, 0.001 µg/mL mAb [11]: 211 pg/mL | IL-2 (pg/mL), MLR donor1, 0.01 µg/mL mAb [11]: 371 pg/mL | IL-2 (pg/mL), MLR donor1, 0.1 µg/mL mAb [11]: 473 pg/mL | IL-2 (pg/mL), MLR donor1, 1 µg/mL mAb [11]: 461 pg/mL | IL-2 (pg/mL), MLR donor1, 10 µg/mL mAb [11]: 488 pg/mL | Mean fluorescence intensity [12]: 17 | Mean fluorescence intensity [13]: 1.93 | Mean fluorescence intensity [14]: 2.66 | OD450 nm [15]: 2.7 | IL-2 (pg/mL), MLR donor 2, 0.001 µg/mL mAb [16]: 73.4 pg/mL | IL-2 (pg/mL), MLR donor 2, 0.01 µg/mL mAb [16]: 130 pg/mL | IL-2 (pg/mL), MLR donor 2, 0.1 µg/mL mAb [16]: 120 pg/mL | IL-2 (pg/mL), MLR donor 2, 1 µg/mL mAb [16]: 94.4 pg/mL | Mean fluorescence intensity [17]: 3.38 | Mean fluorescence intensity [18]: 7.85
B2: chimeric anti-PD-L1 antibody 192D9E7 (antibody, V domains shown)
VH: EVQLVESGGGLVQPGGSLRLSCAASGFTFSSYWMSWVRQAPGKGLEWVADIKQDGSEKYYVDSVKGRFTISRDNAKNSLYLQMNSLRAEDTAVYYCTRDKPHWGGVMDAWGQGTSVTVSS
VL: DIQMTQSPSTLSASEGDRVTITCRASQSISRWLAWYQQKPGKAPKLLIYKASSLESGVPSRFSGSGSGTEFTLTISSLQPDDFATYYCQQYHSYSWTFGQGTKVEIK
notes: as for B1

Mean fluorescence intensity [1]: 136 | Mean fluorescence intensity [2]: 42 | OD450 nm [3]: 1.32 | Mean fluorescence intensity [4]: 83.8 | OD450 nm [5]: 0.34 | OD450 nm [6]: 0.34 | Mean fluorescence intensity [7]: 137
B3: chimeric anti-PD-L1 antibody 105C5D7 (antibody, V domains shown)
VH: EVQLVESGGGLVQPGGSLRLSCAASGFTFSSYWMSWVRQAPGKGLEWVANIKQDGNEKYYVDSVKGRFTISRDNAKNSLYLQMNSLRAEDTAVYYCARNIKWGDAFDIWGQGTMVTVSS
VL: DIQMTQSPSSLSASVGDRVTITCRASQSISSYLNWYQQKPGKAPKLLIYAASSLQSGVPSRFSGSGSGTDFTLTISSLQPEDFAIYSCQQSYSIPLTFGGGTKVEIK
notes: as for B1

Mean fluorescence intensity [8]: 4.04 | Mean fluorescence intensity [9]: 105 | Mean fluorescence intensity [10]: 15.5 | IL-2 (pg/mL), MLR donor1, 0.001 µg/mL mAb [11]: 226 pg/mL | IL-2 (pg/mL), MLR donor1, 0.01 µg/mL mAb [11]: 274 pg/mL | IL-2 (pg/mL), MLR donor1, 0.1 µg/mL mAb [11]: 429 pg/mL | IL-2 (pg/mL), MLR donor1, 1 µg/mL mAb [11]: 497 pg/mL | IL-2 (pg/mL), MLR donor1, 10 µg/mL mAb [11]: 440 pg/mL | Mean fluorescence intensity [12]: 14.3 | Mean fluorescence intensity [13]: 1.91 | Mean fluorescence intensity [14]: 2.1 | OD450 nm [15]: 2.63 | IL-2 (pg/mL), MLR donor 2, 0.001 µg/mL mAb [16]: 68.2 pg/mL | IL-2 (pg/mL), MLR donor 2, 0.01 µg/mL mAb [16]: 100 pg/mL | IL-2 (pg/mL), MLR donor 2, 0.1 µg/mL mAb [16]: 71.5 pg/mL | IL-2 (pg/mL), MLR donor 2, 1 µg/mL mAb [16]: 101 pg/mL | Mean fluorescence intensity [17]: 3.08 | Mean fluorescence intensity [18]: 5.31
B4: chimeric anti-PD-L1 antibody 127D2F3 (antibody, V domains shown)
VH: EVQLVESGGGLVQPGGSLRLSCVASGFTFSSYWMSWVRQAPGKGLEWVANIKQDGSEKYYVDSVKGRLTISRDNAKNSLYLQMKSLRAEDTAVYYCARDPIYSSYFDYWGQGILVTVSS
VL: B3 VL with S31N, I85A, S87Y, S93G, L96F, G100P, E105D
notes: as for B1

Mean fluorescence intensity [1]: 142 | Mean fluorescence intensity [2]: 38.3 | OD450 nm [3]: 1.92 | Mean fluorescence intensity [4]: 74.5 | OD450 nm [5]: 0.45 | OD450 nm [6]: 0.37 | Mean fluorescence intensity [7]: 105
B5: chimeric anti-PD-L1 antibody 78A11F6 (antibody, V domains shown)
VH: EVQLVESGGGLVQPGGSLRLSCAASGITFSSYWMSWVRQTPGKGLEWVANIKQDGSEKYYVKSVKGRFTISRDNAKNSLYLQMNSLRAEDTAVYYCVRDRAVPGTGAFDIWGQGTMVIVSS
VL: DIQMTQSPSTLSASVGDRVTITCRASQSISNWLAWYQQKPGKAPKLLIYKASSLESGVPSRFSGSGSGTEFTLTISSLQPDDFATYYCQQYDSSLFTFGQGTKLEIK
notes: as for B1

Mean fluorescence intensity [8]: 1.87 | Mean fluorescence intensity [9]: 99.2 | Mean fluorescence intensity [10]: 17.2 | IL-2 (pg/mL), MLR donor1, 0.001 µg/mL mAb [11]: 216 pg/mL | IL-2 (pg/mL), MLR donor1, 0.01 µg/mL mAb [11]: 365 pg/mL | IL-2 (pg/mL), MLR donor1, 0.1 µg/mL mAb [11]: 453 pg/mL | IL-2 (pg/mL), MLR donor1, 1 µg/mL mAb [11]: 426 pg/mL | IL-2 (pg/mL), MLR donor1, 10 µg/mL mAb [11]: 477 pg/mL | Mean fluorescence intensity [12]: 19.8 | Mean fluorescence intensity [13]: 2.02 | Mean fluorescence intensity [14]: 1.88 | OD450 nm [15]: 2.69 | IL-2 (pg/mL), MLR donor 2, 0.001 µg/mL mAb [16]: 54.2 pg/mL | IL-2 (pg/mL), MLR donor 2, 0.01 µg/mL mAb [16]: 90.1 pg/mL | IL-2 (pg/mL), MLR donor 2, 0.1 µg/mL mAb [16]: 110 pg/mL | IL-2 (pg/mL), MLR donor 2, 1 µg/mL mAb [16]: 140 pg/mL | Mean fluorescence intensity [17]: 3.83 | Mean fluorescence intensity [18]: 3.96
B6: chimeric anti-PD-L1 antibody 73G11B3 (antibody, V domains shown)
VH: B5 VH with A23V, A24V, I27F, K62D, F68L, F108L, I118T
VL: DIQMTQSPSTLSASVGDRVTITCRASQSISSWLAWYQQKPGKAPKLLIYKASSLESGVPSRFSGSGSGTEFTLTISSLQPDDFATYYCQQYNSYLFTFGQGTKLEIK
notes: as for B1
